From patent US20240239893A1, “METHODS AND COMBINATIONS FOR THE TREATMENT OF CANCER USING IMMUNE CHECKPOINT INHIBITOR ANTIBODIES” (AstraZeneca AB, priority 2020, published 2024)

Experiments:
[1] = system: advanced hepatocellular carcinoma (HCC); assay: Randomized open-label multi-center clinical study of durvalumab and tremelimumab (Example 2): efficacy (ORR, OS, PFS); format: in vivo, human patients; conditions: for ORR, % / Median (95% CI) OS, mo: Table 1, per study arm; for Median (95% CI) OS, mo: 95% CI given; for Median PFS (95% CI): patients with advanced HCC, Kaplan-Meier (FIG. 11)
Description: Primary analysis of all tumor assessment-related endpoints was based on BICR assessments according to RECIST v1.1.
Evaluation of target lesions were classified as follows: • Complete Response—Disappearance of all target lesions. Any pathological lymph nodes (whether target or non-target) must have reduction in short axis to <10 mm (the sum may not be “0” if there are target nodes). • Partial Response—At least a 30% decrease in the sum of the diameters of target lesions, taking as reference the baseline sum diameters. • Progressive Disease—At least a 20% increase in the sum of diameters of target lesions, taking as reference the smallest sum on study (this includes the baseline sum if that is the smallest on study). […] (Note: The appearance of one or more new lesions may be considered progression.) • Stable Disease—Neither sufficient shrinkage to qualify for PR nor sufficient increase to qualify for PD, taking as reference the smallest sum of diameters while on study.
The study disclosed below is a randomized, open-label, multi-center, global, clinical study to assess the efficacy and safety of durvalumab monotherapy and durvalumab plus tremelimumab combination therapy versus sorafenib in the treatment of immune checkpoint inhibitor-naïve patients with HCC who progressed on, were intolerant to, or refused sorafenib. In the foregoing disclosure, a flat-dose regimen of 1500 mg (approximately equivalent to 20 mg/kg) of durvalumab plus 300 mg (equivalent to 4 mg/kg) of tremelimumab was used in this study.
The study population included patients 18 years of age or older with advanced HCC, Barcelona Clinic Liver Cancer Stage B (not eligible for locoregional therapy) or stage C, and Child-Pugh A classification liver disease. Patients must not have received any prior systemic therapy for HCC. Patients were stratified according to macrovascular invasion (yes versus no), etiology of liver disease (hepatitis B virus [confirmed HBV] versus hepatitis C virus [confirmed HCV] versus others), and performance status (Eastern Cooperative Oncology Group [ECOG] 0 versus 1).
A total of 332 patients were enrolled (T300+D, n=75; durvalumab, n=104; tremelimumab, n=69; T75+D, n=84). Patients were randomized in an equal ratio to groups treated with durvalumab 1500 mg monotherapy (D), tremelimumab 750 mg monotherapy (T), combination therapy with durvalumab 1500 mg plus tremelimumab 75 mg×4 doses (T75+D) followed by durvalumab Q4W, combination therapy with durvalumab 1500 mg plus tremelimumab 300 mg×1 dose (T 300+D) followed by durvalumab Q4W. Upon closure to further enrollment into the T75+D arm, patients were randomized in an equal ratio to groups treated with D, T300+D, and Sorafenib. Durvalumab and tremelimumab were administered via intravenous (IV) infusion every 4 weeks (Q4W). Sorafenib was administered orally BID (see FIGS. 3 and 4).
(§1) Tremelimumab 750 mg via IV infusion Q4W starting at Week 0 for seven doses and then Q12W until confirmed PD, unacceptable toxicity, or any discontinuation criterion was met. (Note: If a patient's weight decreased to ≤30 kg, the patient received weight-based dosing of tremelimumab 10 mg/kg Q4W, until the weight increased to >30 kg, at which point the patient received the flat dose of tremelimumab 750 mg Q4W).
as §1, with “• Durvalumab 1500” for “Tremelimumab 750”, “0” for “0 for seven doses and then Q12W”, “durvalumab 20” for “tremelimumab 10”, “durvalumab 1500” for “tremelimumab 750”, “Q4W.) […]” for “Q4W).”

[2] = system: peripheral blood T cell receptors (T-cell clones); assay: Molecular analysis of peripheral blood T cell receptors (TCR clonality, immunoSeq) on day 29; format: in vivo, human patients; conditions: for Median expanded T cell clones at Day 29, n: Day 29, first cycle of Q4W dosing, immunoSeq paired samples
Description: This trend was not seen with monotherapy D or the lower dose T combination (T75+D) (FIG. 15). Additionally, greater clonal expansion of T-cells was associated with better OS and seen in D+T combination arms (FIG. 16).

[3] = system: proliferating CD8+ Ki67+ T cells; assay: Exposure-response model: tremelimumab trough concentration vs change from baseline of CD8+ Ki67+ T cell counts; format: in vivo, patients with uHCC
Protocol: (§2) Finally, an exposure-response model was developed to describe the relationship between tremelimumab exposure and proliferating CD8+ Ki67+ T cells in patients with uHCC. Relationships between tremelimumab trough concentration after the first dose (Cmin) and the maximum change from baseline (CFB) for CD8+ Ki67+ T cell counts were evaluated using linear and non-linear regression models. Covariate effects were evaluated on the model intercept and the drug effect (Emax) using a stepwise search approach. The relationship between CD8+Ki67+ T cell count CFB and tremelimumab trough concentration was best described by an Emax model. The only statistically significant and well estimated covariate effect was the baseline CD8+ Ki67+ T cell count on Emax. The maximum effect was higher in patients with lower baseline CD8+ Ki67+ T cell counts and lower in patients with higher baseline CD8+ Ki67+ T cell counts. At the 10th, median, and 90th percentiles of baseline CD8+(3, 9, and 25 cells/uL), the maximum effect is 593%, 341%, and 77.9% change from baseline, respectively.

[4] = Tremelimumab trough concentration after the first dose (Cmin); format: in vivo, patients with uHCC; conditions: 300 mg tremelimumab
Protocol: as §2

| Molecule | ORR, % [1] | Median (95% CI) OS, mo [1] | Median PFS (95% CI) [1] | clonal expansion of T cells in responders compared to non-responders ([2]; Day 29 (FIG. 15)) | Median expanded T cell clones at Day 29, n [2] | maximum effect (Emax), change from baseline of CD8+ Ki67+ T cell count ([3]; 10th percentile of baseline CD8+ (3 cells/uL)) | maximum effect (Emax), change from baseline of CD8+ Ki67+ T cell count ([3]; 90th percentile of baseline CD8+ (25 cells/uL)) | estimated half-maximal effective concentration (EC50) ([3]; Emax model, CD8+Ki67+ T cell count change from baseline vs tremelimumab Cmin) | maximum effect (Emax), change from baseline of CD8+ Ki67+ T cell count ([3]; median baseline CD8+ (9 cells/uL)) | median Cmin (trough concentration after the first dose) [4] |
| --- | --- | --- | --- | --- | --- | --- | --- | --- | --- | --- |
| durvalumab: human monoclonal antibody directed against human PD-L1; in Example 2 given as 1500 mg monotherapy Q4W (D) | 10.6% | 13.6 mo | 2.07 (1.84-2.83) months | not seen | 32 (13, 46) | – | – | – | – | – |
| tremelimumab: anti-CTLA-4 antibody; in Example 2 given as 750 mg monotherapy Q4W for seven doses then Q12W (T) (antibody, heavy chain variable region; light chain variable region) VH: GVVQPGRSLRLSCAASGFTFSSYGMHWVRQAPGKGLEWVAVIWYDGSNKYYADSVKGRFTISRDNSKNTLYLQMNSLRAEDTAVYYCARDPRGATLYYYYYGMDVWGQGTTVTVSSASTKGPSVFPLAPCSRSTSESTAALGCLVKDYFPEPVTVSWNSGALTSGVH VL: PSSLSASVGDRVTITCRASQSINSYLDWYQQKPGKAPKLLIYAASSLQSGVPSRFSGSGSGTDFTLTISSLQPEDFATYYCQQYYSTPFTFGPGTKVEIKRTVAAPSVFIFPPSDEQLKSGTASVVCLLNNFYPREAKV | 7.2% | 15.1 mo | 2.69 (1.87-5.29) months | – | 100 (50, 160) | 593% | 77.9% | 5.24 µg/mL | 341% | 12900 ng/mL |
